In US20250326865A1, “C-MET PROTEIN-BINDING PEPTIDE COMPLEX” (PeptiDream Inc., priority 2021, published 2025):
Starred links: 1 amine or outer side, 2 acyl side, 3 side chain; linkers in the order of their positions; H or OH if unused. Positions of bridges follow the written chain, without caps; N, C: chain ends. Non-standard residues stand in square brackets, D forms with d. Residues, ends and D or L forms follow the SMILES beside them. Primed or numbered codes have the meaning given here. Chains are numbered I, II in the order given. No end group written: not given here. CO(CH2)2(OCH2CH2)17CO = O=C(CCOCCOCCOCCOCCOCCOCCOCCOCCOCCOCCOCCOCCOCCOCCOCCOCCOCCC(=O)[*:2])[*:1]; CO(CH2CH2O)9CH2CH2CO = O=C(CCOCCOCCOCCOCCOCCOCCOCCOCCOCCC(=O)[*:2])[*:1]; NMeF = CN[C@@H](Cc1ccccc1)C(=O)O; Ahp(2) = CCCCC[C@H](N)C(=O)O; NMeC = CN[C@@H](CS)C(=O)O; Nle = CCCC[C@H](N)C(=O)O; Ahp′ = not defined here

B1: GFs_c-Met-00014305-PEG17 dimer (peptide SEQ ID NO: 34, GFs_c-Met-00014336p; linker SEQ ID NO: 38) (peptide)
peptide: {CH2CO}-[NMeF]TAVS[NMeF]DED[Ahp(2)]PRWS[NMeC]
chain: GK[CO(CH2)2(OCH2CH2)17CO]KG
modifications: thioether I:N-I:15 (inferred); also: homodimer: two cyclic peptides joined by linker G-K-cPEG17c-K-G, peptide C-terminus on linker
B2: GFs_c-Met-00014318-PEG9 dimer (peptide SEQ ID NO: 34, GFs_c-Met-00014336p; linker SEQ ID NO: 36) (peptide)
peptide: {CH2CO}-[NMeF]TAVS[NMeF]DED[Ahp(2)]PRWS[NMeC]
chain: GK[CO(CH2CH2O)9CH2CH2CO]KG
modifications: thioether I:N-I:15 (inferred); also: homodimer: two cyclic peptides joined by linker G-K-cPEG9c-K-G, peptide C-terminus on linker

These molecules were tested against human c-Met protein (human, UniProt P08581 25-1390) (assay: cell-based or functional assay). Conditions: not given.
Chain of human c-Met protein (P08581 25-1390): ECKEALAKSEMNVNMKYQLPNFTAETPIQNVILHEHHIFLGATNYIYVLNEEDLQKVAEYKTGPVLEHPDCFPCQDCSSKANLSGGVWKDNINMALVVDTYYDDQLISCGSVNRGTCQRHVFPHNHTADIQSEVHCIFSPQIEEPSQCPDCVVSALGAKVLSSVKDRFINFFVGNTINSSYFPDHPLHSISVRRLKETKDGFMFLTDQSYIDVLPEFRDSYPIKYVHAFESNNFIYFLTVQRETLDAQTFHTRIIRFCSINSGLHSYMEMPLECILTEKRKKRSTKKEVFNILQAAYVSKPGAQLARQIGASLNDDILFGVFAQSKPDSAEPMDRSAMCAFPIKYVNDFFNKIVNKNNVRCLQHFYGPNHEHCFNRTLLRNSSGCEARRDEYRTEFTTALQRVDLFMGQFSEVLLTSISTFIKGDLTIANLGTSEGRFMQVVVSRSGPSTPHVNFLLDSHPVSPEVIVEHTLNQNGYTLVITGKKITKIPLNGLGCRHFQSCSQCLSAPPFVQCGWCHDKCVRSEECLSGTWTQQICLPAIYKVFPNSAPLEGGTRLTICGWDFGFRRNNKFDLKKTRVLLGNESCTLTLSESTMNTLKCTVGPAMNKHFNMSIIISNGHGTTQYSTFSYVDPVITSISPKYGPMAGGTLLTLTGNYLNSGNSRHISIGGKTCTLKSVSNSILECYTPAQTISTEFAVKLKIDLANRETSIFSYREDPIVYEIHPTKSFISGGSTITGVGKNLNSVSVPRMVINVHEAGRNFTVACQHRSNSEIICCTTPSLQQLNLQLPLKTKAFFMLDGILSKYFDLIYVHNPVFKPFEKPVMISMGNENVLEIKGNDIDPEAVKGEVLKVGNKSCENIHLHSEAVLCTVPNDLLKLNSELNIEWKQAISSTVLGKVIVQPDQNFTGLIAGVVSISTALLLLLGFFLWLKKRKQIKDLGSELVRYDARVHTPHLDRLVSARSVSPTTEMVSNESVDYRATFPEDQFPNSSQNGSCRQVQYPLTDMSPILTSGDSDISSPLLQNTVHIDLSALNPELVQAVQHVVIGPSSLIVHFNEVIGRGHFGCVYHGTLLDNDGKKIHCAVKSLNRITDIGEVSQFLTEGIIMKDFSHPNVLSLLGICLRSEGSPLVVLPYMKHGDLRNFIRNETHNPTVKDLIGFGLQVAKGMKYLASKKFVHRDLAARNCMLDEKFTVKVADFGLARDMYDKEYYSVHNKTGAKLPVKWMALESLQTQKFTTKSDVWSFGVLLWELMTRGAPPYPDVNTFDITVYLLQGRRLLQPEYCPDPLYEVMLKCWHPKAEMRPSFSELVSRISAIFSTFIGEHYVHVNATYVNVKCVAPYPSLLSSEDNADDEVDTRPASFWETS

| Molecule | C-Met Agonist Activity (C50; nM): phospho-c-Met AlphaLISA, A431 cells [nM] |
| --- | --- |
| B1 | 0.27 |
| B2 | 0.24 |

The molecules below were run against T1, c-Met (Homo sapiens, UniProt P08581) (assay: Phospho-c-Met AlphaLISA assay (c-Met agonist activity) in A431 cells). Conditions: c-Met phosphorylation (Tyr1234/1235) in A431 cells, 15 minutes of stimulation; maximum signal induced by HGF = 100%.
T1 construct: endogenous in cells; host or cells: A431 (human)
Assay type: cell-based
Method: To evaluate the activation potency (c-Met agonist activity) of c-Met of the peptide complex of the present invention, the phosphorylation of c-Met was verified. Human A431 cells were cultured in DMEM high glucose, GlutaMAX (registered trademark) Supplement, pyruvate (Thermo Fisher Scientific), containing 10% FBS (Gibco). After cells were detached using Accutase (Innovative cell technologies), they were seeded into a 96-well plate at 10000 cells per well and cultured overnight. The next day, for starvation, the culture medium was changed to DMEM high glucose, GlutaMAX (registered trademark) Supplement, pyruvate (Thermo Fisher Scientific), containing 0.1% BSA (Sigma-Aldrich), and the cells were cultured overnight. Then, the peptide complex synthesized in Example 3 or Recombinant Human HGF Protein (R&D systems) as a control was added, and after 15 minutes of stimulation, cells were lysed in a Lysis Buffer provided in the AlphaLISA (registered trademark) SureFire (registered trademark) Ultra™ Phospho-c-Met (Tyr1234/1235) kit (PerkinElmer). The assay was performed according to the kit protocol, and a SpectraMax (registered trademark) Paradigm (registered trademark) multimode microplate reader (Molecular Devices, LLC.) was used for signal detection. […] In the same manner, the C50 value was calculated by GraphPad Prism as the concentration of peptide showing 50% activity of the signal induced by HGF. […] Further, for a complex (GFs_c-Met-00014336-PEG13 dimer; complex no. 49 in Table 4) of a peptide (SEQ ID NO: 34) and a linker (SEQ ID NO: 37), a graph of c-Met agonist activity is shown in FIG. 1.

T1 sequence (P08581 25-1390): as above

| Molecule | C-Met Agonist Activity (2 or 1) |
| --- | --- |
| 8 ({CH2CO}-[NMeF]VYVS[NMeF]DDD[Nle]PRWS[NMeC]; thioether N-15 (inferred); not fully specified; also: conjugated moiety via linker) [Peptide 8] | 2 (those showing more than 50% activation were described as 2) |
| 1 ({CH2CO}-[NMeF]VYVS[NMeF]DDD[Ahp′]PRWS[NMeC]; thioether N-15 (inferred); not fully specified; reading uncertain; also: conjugated moiety via linker) [Peptide 1] | 2 (those showing more than 50% activation were described as 2) |
| 2 ({CH2CO}-[MeA]VYVS[NMeF]DDD[Ahp′]PRWS[NMeC]; thioether N-15 (inferred); not fully specified; reading uncertain; also: conjugated moiety via linker) [Peptide 2] | 1 (those showing less than 50% activation as 1) |
| 10 ({CH2CO}-[NMeF]VYVS[NMeF]DDD[Ahp′]PSWS[NMeC]; thioether N-15 (inferred); not fully specified; reading uncertain; also: conjugated moiety via linker) [Peptide 10] | 1 (those showing less than 50% activation as 1) |
| 9 ([NMeF]VYVS[NMeF]DDDSPRWS[NMeC]; also: conjugated moiety via linker, site not given here) [Peptide 9] | 2 (those showing more than 50% activation were described as 2) |
| 12 ({CH2CO}-[NMeF]VYVS[NMeF]DDD[Ahp′]PRWD[NMeC]; thioether N-15 (inferred); not fully specified; reading uncertain; also: conjugated moiety via linker) [Peptide 12] | 2 (those showing more than 50% activation were described as 2) |
| 14 ({CH2CO}-[NMeF]VYVS[NMeF]DDD[Ahp′]PRWQ[NMeC]; thioether N-15 (inferred); not fully specified; reading uncertain; also: conjugated moiety via linker) [Peptide 14] | 2 (those showing more than 50% activation were described as 2) |
| 7 ({CH2CO}-[NMeF]VYVS[NMeF]DVD[Ahp′]PRWS[NMeC]; thioether N-15 (inferred); not fully specified; reading uncertain; also: conjugated moiety via linker) [Peptide 7] | 2 (those showing more than 50% activation were described as 2) |
| 15 ({CH2CO}-[NMeF]VYVS[NMeF]DDD[Ahp′]PRWV[NMeC]; thioether N-15 (inferred); not fully specified; reading uncertain; also: conjugated moiety via linker) [Peptide 15] | 2 (those showing more than 50% activation were described as 2) |
| 3 ({CH2CO}-FVYVS[NMeF]DDD[Ahp′]PRWS[NMeC]; thioether N-15 (inferred); not fully specified; reading uncertain; also: conjugated moiety via linker) [Peptide 3] | 1 (those showing less than 50% activation as 1) |
| 16 ({CH2CO}-[NMeF]VAVS[NMeF]DDD[Ahp′]PRWS[NMeC]; thioether N-15 (inferred); not fully specified; reading uncertain; also: conjugated moiety via linker) [Peptide 16] | 1 (those showing less than 50% activation as 1) |
| 5 ([NMeF]WYVS[NMeF]DDD[Ahp′]PRWS[NMeC]; not fully specified; reading uncertain) [Peptide 5] | 2 (those showing more than 50% activation were described as 2) |

Same assay, conditions: concentration of peptide showing 50% activity of the signal induced by HGF; A431 cells, 15 minutes of stimulation; read-out: C-Met Agonist Activity (C50; nM)

| Molecule | EC50 [nM] |
| --- | --- |
| CCCCC[C@@H]1NC(=O)[C@H](CC(=O)O)NC(=O)[C@@H]2CCCN2C(=O)[C@H](CC(=O)O)NC(=O)[C@H](Cc2ccccc2)N(C)C(=O)[C@H](CO)NC(=O)[C@H](C(C)C)NC(=O)[C@H](C)NC(=O)[C@H]([C@@H](C)O)NC(=O)[C@H](Cc2ccccc2)N(C)C(=O)CSC[C@@H](C(=O)NCC(=O)N[C@@H](CCCCNC(=O)CCOCCOCCOCCOCCOCCOCCOCCOCCOCCC(=O)NCCCC[C@H](NC(=O)CNC(=O)[C@@H]2CSCC(=O)N(C)[C@@H](Cc3ccccc3)C(=O)N[C@@H]([C@@H](C)O)C(=O)N[C@@H](C)C(=O)N[C@@H](C(C)C)C(=O)N[C@@H](CO)C(=O)N(C)[C@@H](Cc3ccccc3)C(=O)N[C@@H](CC(=O)O)C(=O)N3CCC[C@H]3C(=O)N[C@@H](CC(=O)O)C(=O)N[C@@H](CCCCC)C(=O)N3CCC[C@H]3C(=O)N[C@@H](CCCNC(=N)N)C(=O)N[C@@H](Cc3c[nH]c4ccccc34)C(=O)N[C@@H](C)C(=O)N2C)C(N)=O)C(N)=O)N(C)C(=O)[C@H](C)NC(=O)[C@H](Cc2c[nH]c3ccccc23)NC(=O)[C@H](CCCNC(=N)N)NC(=O)[C@@H]2CCCN2C1=O [Peptide 46] (I: {CH2CO}-[NMeF]TAVS[NMeF]DPD[Ahp(2)]PRWA[NMeC]GK-NH2 / II: {CH2CO}-[NMeF]TAVS[NMeF]DPD[Ahp(2)]PRWA[NMeC]GK-NH2; linker I:17-II:17 via CO(CH2CH2O)9CH2CH2CO (inferred); thioether I:N-I:15, II:N-II:15 (inferred)) | 0.67 |
| CCCCC[C@@H]1NC(=O)[C@H](CC(=O)O)NC(=O)[C@H](CO)NC(=O)[C@H](CC(=O)O)NC(=O)[C@H](Cc2ccccc2)N(C)C(=O)[C@H](CO)NC(=O)[C@H](C(C)C)NC(=O)[C@H](C)NC(=O)[C@H]([C@@H](C)O)NC(=O)[C@H](Cc2ccccc2)N(C)C(=O)CSC[C@@H](C(=O)NCC(=O)N[C@@H](CCCCNC(=O)CCOCCOCCOCCOCCOCCOCCOCCOCCOCCC(=O)NCCCC[C@H](NC(=O)CNC(=O)[C@@H]2CSCC(=O)N(C)[C@@H](Cc3ccccc3)C(=O)N[C@@H]([C@@H](C)O)C(=O)N[C@@H](C)C(=O)N[C@@H](C(C)C)C(=O)N[C@@H](CO)C(=O)N(C)[C@@H](Cc3ccccc3)C(=O)N[C@@H](CC(=O)O)C(=O)N[C@@H](CO)C(=O)N[C@@H](CC(=O)O)C(=O)N[C@@H](CCCCC)C(=O)N3CCC[C@H]3C(=O)N[C@@H](CCCNC(=N)N)C(=O)N[C@@H](Cc3c[nH]c4ccccc34)C(=O)N[C@@H](C)C(=O)N2C)C(N)=O)C(N)=O)N(C)C(=O)[C@H](C)NC(=O)[C@H](Cc2c[nH]c3ccccc23)NC(=O)[C@H](CCCNC(=N)N)NC(=O)[C@@H]2CCCN2C1=O [Peptide 44] (I: {CH2CO}-[NMeF]TAVS[NMeF]DSD[Ahp(2)]PRWA[NMeC]GK-NH2 / II: {CH2CO}-[NMeF]TAVS[NMeF]DSD[Ahp(2)]PRWA[NMeC]GK-NH2; linker I:17-II:17 via CO(CH2CH2O)9CH2CH2CO (inferred); thioether I:N-I:15, II:N-II:15 (inferred)) | 0.33 |
